Biological target: MN (Homo sapiens, UniProt Q16790)
Test: Surface plasmon resonance (BIAcore) binding to MN protein
Parameters: The MN protein represents the entire extra-cellular domain of the protein with a C-terminal histag for purification; His tag (C); made in house; host or cells: HKB-11 (mammalian cell line)
Details: soluble MN, panning-derived full-length antibodies, read-out: Affinity (Kd)
Procedure: The binding interactions between MN protein and the antibodies of this invention were analyzed using surface plasmon resonance technology on a BIAcore 3000 instrument (BIAcore, Uppsala, Sweden). For the binding of full-length IgGs (1e4, 1aa1, and 3ee9), goat anti-human IgG Fc was covalently coupled to the CM5 biosensor chip at high density using a standard amine coupling kit (BIAcore, Uppsala, Sweden). A capture assay was then used to bind these IgG to the anti-human IgG Fc-immobilized surface, aiming for a 300 response unit BIAcore signal. […] After ligand binding, the flow rate was then increased to 25 μl/min and various concentrations of MN analyte (e.g., range of 50 nM to 1 nM) were flowed over the surface for 10 minutes such that the association phase could be monitored. […] The binding of Fabs to MN was similarly determined except that an anti-human-Fab IgG was immobilized onto the chip and used to capture the Fabs prior to the assessment of MN binding.
Binding interactions between HKB11-expressed human MN protein and human full-length anti-MN MAbs were analyzed using surface plasmon resonance technology on a BIAcore 3000 instrument (BIAcore, Uppsala, Sweden). […] After ligand binding, flow rate was increased to 25 ul/min and MN analyte (50 nM to 1 nM) was flowed over the surface for 10 min such that the association phase could be monitored. […]

Kd: 1 nM
B1: 3a4: anti-MN antibody; CDRs SEQ ID NOS: 60, 66, 73, 108, 110, and 112 (antibody, V domains shown)
VH: QVELVESGGGLVQPGGSLRLSCAASGFTFSDYSINWVRQAPGKGLEYVSNISYSGSSTYYADSVKGRFTISRDNSKNTLYLQMNSLRAEDTAVYYCARFKYSGGSDSWGQGTLVTVSS
VL: DIELTQPPSVSVAPGQTARISCSGDNLPDFYVHWYQQKPGQAPVLVISEDNKRPSGIPERFSGSNSGNTATLTISGTQAEDEADYYCSTYGYTYSYSVFGGGTKLTVL
